Where two headings read alike, the source gives them in different places.
T1: human CD20 on cells (human, UniProt P11836 1-297)
T1 sequence (looked up): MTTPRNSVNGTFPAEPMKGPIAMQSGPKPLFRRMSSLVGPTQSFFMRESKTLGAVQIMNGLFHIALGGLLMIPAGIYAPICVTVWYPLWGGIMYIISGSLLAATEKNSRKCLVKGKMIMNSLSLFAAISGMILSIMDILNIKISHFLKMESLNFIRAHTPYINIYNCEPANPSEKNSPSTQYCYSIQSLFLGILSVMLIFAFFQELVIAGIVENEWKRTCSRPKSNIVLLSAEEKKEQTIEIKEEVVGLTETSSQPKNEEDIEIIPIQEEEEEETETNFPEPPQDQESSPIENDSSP

T2: T cell receptor alpha/beta on purified primary human T cells (human, UniProt P01848 1-140; P01850 1-176)
T2 construct: whole, on cells; also called human primary T cells
T2 TCR alpha (looked up): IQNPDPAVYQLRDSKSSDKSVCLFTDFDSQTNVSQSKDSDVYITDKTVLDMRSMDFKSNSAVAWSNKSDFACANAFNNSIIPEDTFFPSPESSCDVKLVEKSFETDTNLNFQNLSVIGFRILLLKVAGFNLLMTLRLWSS
T2 TCR beta (looked up): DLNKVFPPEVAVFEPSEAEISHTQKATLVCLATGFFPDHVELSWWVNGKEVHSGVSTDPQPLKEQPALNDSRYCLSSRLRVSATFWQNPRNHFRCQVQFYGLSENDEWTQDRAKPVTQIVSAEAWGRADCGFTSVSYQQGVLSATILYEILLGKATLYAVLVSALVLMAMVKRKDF


Key:
human CD20 on cells [1] = target: T1, human CD20 on cells; experiment: cell-based or functional assay
[2] = target: T2, T cell receptor alpha/beta on purified …; experiment: flow cytometry, purified primary human T cells
human CD20 on cells [3] = target: T1, human CD20 on cells; experiment: flow cytometry, Ramos cells
human CD20 on cells [4] = target: T1, human CD20 on cells; experiment: cell-based or functional assay; remark: listed apart in the source
[5] = target: T3, human CD3 expressed on HEK293H cells (human, UniProt P04234 22-171; P09693 23-182; P07766 23-207; P20963 22-164); experiment: flow cytometry on HEK293H human CD3 cells, MCF
T3 construct: also called HEK293H human CD3; HEK293H CD3
Procedure: (§1) Binding of purified monovalent anti-TCR Nanobodies to human TCR(2IAN)/CD3 expressed on HEK293H cells was evaluated and compared with the binding to HEK293H cells transfected with human CD3 in flow cytometry, as outlined in Example 5. Dilution series of anti-TCR Nanobodies starting from 1 μM were applied to the cells. The parental HEK293H cell line was included as TCR/CD3 negative cell line.

[6] = target: T3, human CD3 expressed on HEK293H cells; experiment: flow cytometry, HEK293H human CD3 cells
Procedure: as §1
Nanobodies clearly bound to human TCR(2IAN)/CD3 expressed on HEK293H but not to the HEK293H cells transfected with human CD3 only, nor to the HEK293H parental cell line. The EC50 values obtained from the dose response curve are depicted in Table C-2.

[7] = target: T2, T cell receptor alpha/beta on purified …; experiment: flow cytometry, purified primary human T cells
Procedure: Periplasmic extracts were screened for cell expressed TCR/CD3 binding using human TCR/CD3 transfected CHO-K1 or HEK293H cells and the respective CHO-K1 or HEK293H reference cell line in a mixed cell line setup. To this end, a large batch of the reference cell lines were labelled with 8 μM PKH26 and frozen. 5×10⁴ PKH labelled reference cells were mixed with 5×10⁴ target cells and incubated with periplasmic extracts for 30 min at 4′C, and washed 3 times. […] Samples were washed, resuspended in FACS Buffer (D-PBS from Gibco, with 10% FBS from Sigma and 0.05% sodium azide from Merck) and then analysed via a BD FACSArray. […] In this gate, 20,000 cells were counted during acquisition. Based on PKH26-SSC distribution, the PKH labelled parental population and the human TCR/CD3 unlabelled target population was selected. For these 2 populations the mean APC value was calculated.
Binding of purified monovalent anti-TCR Nanobodies to human TCR(2XN9)/CD3 expressed on CHO-K1 cells and to purified primary human T cells was evaluated in flow cytometry as outlined in Example 4.1.

[8] = target: T4, T cell receptor alpha/beta on primary cynomolgus T cells (cynomolgus); experiment: cell-based or functional assay
[9] = target: T4, T cell receptor alpha/beta on primary …; experiment: cell-based or functional assay; remark: listed apart in the source
EGFR on cells [10] = target: T5, EGFR on cells (UniProt P00533 25-1210, limits assumed); experiment: cell-based or functional assay
EGFR on cells [11] = target: T5, EGFR on cells; experiment: flow cytometry, HER14 cells

T3 sequence (P04234 22-171 limits assumed, chain 1 of 4): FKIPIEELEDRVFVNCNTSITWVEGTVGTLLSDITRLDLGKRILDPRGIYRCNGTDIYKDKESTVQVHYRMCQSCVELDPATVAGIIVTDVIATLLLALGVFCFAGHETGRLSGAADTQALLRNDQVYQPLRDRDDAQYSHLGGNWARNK
T3 sequence (P09693 23-182 limits assumed, chain 2 of 4): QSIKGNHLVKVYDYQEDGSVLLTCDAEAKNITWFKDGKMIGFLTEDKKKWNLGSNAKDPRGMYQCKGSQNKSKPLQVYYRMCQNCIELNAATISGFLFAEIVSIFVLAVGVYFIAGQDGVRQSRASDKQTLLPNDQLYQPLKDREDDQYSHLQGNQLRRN
T3 sequence (P07766 23-207 limits assumed, chain 3 of 4): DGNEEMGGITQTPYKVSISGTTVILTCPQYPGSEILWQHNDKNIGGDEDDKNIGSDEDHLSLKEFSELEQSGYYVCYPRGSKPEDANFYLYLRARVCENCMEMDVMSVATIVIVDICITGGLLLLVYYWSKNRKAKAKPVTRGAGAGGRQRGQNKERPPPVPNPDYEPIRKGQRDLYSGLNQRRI
T3 sequence (P20963 22-164 limits assumed, chain 4 of 4): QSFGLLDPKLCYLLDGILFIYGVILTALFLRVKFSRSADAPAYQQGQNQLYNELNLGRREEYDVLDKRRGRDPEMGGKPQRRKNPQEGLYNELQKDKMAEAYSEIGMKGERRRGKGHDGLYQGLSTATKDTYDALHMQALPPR

Binder | IC50, flow cytometry based human T cell mediated Ramos killing assay, E:T 10:1 (human CD20 on cells [1]) [nM] | EC50 [2] [nM] | EC50 (human CD20 on cells [3]) [nM] | IC50, xCELLigence human T cell mediated CHO-K1 CD20 killing assay, E:T 30:1, 44 h (human CD20 on cells [4]) [nM] | binding result [5] | MCF at 1 µM [6] [MCF] | EC50 [7] [nM] | IC50, xCELLigence cynomolgus T cell mediated CHO-K1 human CD20 killing assay, E:T 30:1 [8] [nM] | IC50, flow cytometry based cynomolgus T cell mediated B cell (Ramos) killing assay [9] [nM] | IC50, xCELLigence human T cell mediated killing of HER14 cells, E:T 15, 50-60 h (EGFR on cells [10]) [nM] | EC50 (EGFR on cells [11]) [nM] | Top (EGFR on cells [11])
T017000051 (bispecific antibody, CD20 x TCR bispecific Nanobody construct (cluster C); entry includes the FLAG3-HIS6 tag; also called 20CD019C07-35GS-T0170061G01-FLAG3-HIS6) EVQLVESGGGLVQPGGSLRLSCTFSGGTFSSYTMGWFRQAPGKEREFVAEVRWGGVTTYSNSLKDRFSISEDSVKNAVYLQMNSLKPEDTAVYYCAAVRQMYMTVVPDYWGQGTLVTVSSGGGGSGGGGSGGGGSGGGGSGGGGSGGGGSGGGGSEVQLVESGGGLVQPGGSLRLSCAASGEIGRINFYRWYRQAPGNQREVVATITIADKTDYADSAKGRFTISRDESRNMVYLQMSSLKPEDTAVYFCHAGSRLYPYDYWGQGTLVTVSSGAADYKDHDGDYKDHDIDYKDDDDKGAAHHHHHH | 0.57 | > 100 | 2.7 | 27 |  |  |  |  |  |  |  | 
T0170061G01 (VHH, Monovalent anti-TCR Nanobody, cluster C; expressed in E. coli as triple Flag, His6-tagged protein; also called T0170PMP061G01; not shown: C-terminal triple Flag-His6 tag of the E. coli-expressed monovalent) VHH: EVQLVESGGGLVQPGGSLRLSCAASGEIGRINFYRWYRQAPGNQREVVATITIADKTDYADSAKGRFTISRDESRNMVYLQMSSLKPEDTAVYFCHAGSRLYPYDYWGQGTQVTVSS |  |  |  |  | no binding (tested: 1e-6 M) | 495 | > 100 |  |  |  |  | 
T017000055 (bispecific antibody, entry includes the FLAG3-HIS6 tag; also called 20CD019C07-35GS-T0170055A02-FLAG3-HIS6) EVQLVESGGGLVQPGGSLRLSCTFSGGTFSSYTMGWFRQAPGKEREFVAEVRWGGVTTYSNSLKDRFSISEDSVKNAVYLQMNSLKPEDTAVYYCAAVRQMYMTVVPDYWGQGTLVTVSSGGGGSGGGGSGGGGSGGGGSGGGGSGGGGSGGGGSEVQLVESGGGLVQPGGSLRLSCAASGDVHKINILGWYRQAPAKEREMVAHITIGDATDYADSAKGRFTISRDEAKNMVYLQMNSLKPEDTAVYFCRAYSRIYPYNYWGQGTLVTVSSGAADYKDHDGDYKDHDIDYKDDDDKGAAHHHHHH | 0.53 | 130 | 1.8 | 1.4 |  |  |  | 0.99 | 0.569 |  |  | 
T017000031 (bispecific antibody, TCR x CD20 bispecific Nanobody construct (cluster B); entry includes the FLAG3-HIS6 tag; also called T0170055C07-35GS-20CD019C07-FLAG3-HIS6) EVQLVESGGGLVQPGGSLRLSCITSGETFKINIWGWYRQAPGKQRELVASLTIGGATNYADSVKGRFTISEDSAKNTVYLQMNSLKPEDTAVYFCNAKSRLYPYDYWGQGTLVTVSSGGGGSGGGGSGGGGSGGGGSGGGGSGGGGSGGGGSEVQLVESGGGLVQPGGSLRLSCTFSGGTFSSYTMGWFRQAPGKEREFVAEVRWGGVTTYSNSLKDRFSISEDSVKNAVYLQMNSLKPEDTAVYYCAAVRQMYMTVVPDYWGQGTLVTVSSGAADYKDHDGDYKDHDIDYKDDDDKGAAHHHHHH | 1.1 | 350 | 23 | 2.1 |  |  |  | 1.2 | 0.79 |  |  | 
T017000042 (bispecific antibody, TCR x CD20 bispecific Nanobody construct (cluster A); entry includes the FLAG3-HIS6 tag; also called T0170055A02-35GS-20CD019C07-FLAG3-HIS6) EVQLVESGGGLVQPGGSLRLSCAASGDVHKINILGWYRQAPAKEREMVAHITIGDATDYADSAKGRFTISRDEAKNMVYLQMNSLKPEDTAVYFCRAYSRIYPYNYWGQGTLVTVSSGGGGSGGGGSGGGGSGGGGSGGGGSGGGGSGGGGSEVQLVESGGGLVQPGGSLRLSCTFSGGTFSSYTMGWFRQAPGKEREFVAEVRWGGVTTYSNSLKDRFSISEDSVKNAVYLQMNSLKPEDTAVYYCAAVRQMYMTVVPDYWGQGTLVTVSSGAADYKDHDGDYKDHDIDYKDDDDKGAAHHHHHH | 5.7 | 230 | 20 | 4.2 |  |  |  | 0.89 | 0.17 |  |  | 
T017000074 (bispecific antibody, TCR x CD20 bispecific Nanobody construct (cluster A); entry includes the FLAG3-HIS6 tag; also called T0170056G05-35GS-20CD019C07-FLAG3-HIS6) EVQLVESGGGLVQPGGSLRLSCVASGDVHKINFLGWYRQAPGKEREKVAHISIGDQTDYADSAKGRFTISRDESKNMVYLQMNSLKPEDTAVYFCRAFSRIYPYDYWGQGTLVTVSSGGGGSGGGGSGGGGSGGGGSGGGGSGGGGSGGGGSEVQLVESGGGLVQPGGSLRLSCTFSGGTFSSYTMGWFRQAPGKEREFVAEVRWGGVTTYSNSLKDRFSISEDSVKNAVYLQMNSLKPEDTAVYYCAAVRQMYMTVVPDYWGQGTLVTVSSGAADYKDHDGDYKDHDIDYKDDDDKGAAHHHHHH | 0.92 | 190 | 16 | 1.5 |  |  |  | 0.12 | 0.24 |  |  | 
T017000107 (other, EGFR x CEACAM5 x TCR multispecific Nanobody construct; entry includes the FLAG3-HIS6 tag; also called EGFR038G07-35GS-NbCEA5-35GS-T0170056G05-FLAG3-HIS6) EVQLVESGGGLVQAGGSLRLSCAASGRTFSSYVMGWFRQATGKEREFVATIAWDSGSTYYADSVKGRFTISRDNAKNTVHLQMNSLKPEDTAVYYCAASYNVYYNNYYYPISRDEYDYWGQGTLVTVSSGGGGSGGGGSGGGGSGGGGSGGGGSGGGGSGGGGSEVQLVESGGGSVQAGGSLRLSCAASGDTYGSYWMGWFRQAPGKEREGVAAINRGGGYTVYADSVKGRFTISRDTAKNTVYLQMNSLRPDDTADYYCAASGVLGGLHEDWFNYWGQGTLVTVSSGGGGSGGGGSGGGGSGGGGSGGGGSGGGGSGGGGSEVQLVESGGGLVQPGGSLRLSCVASGDVHKINFLGWYRQAPGKEREKVAHISIGDQTDYADSAKGRFTISRDESKNMVYLQMNSLKPEDTAVYFCRAFSRIYPYDYWGQGTLVTVSSGAADYKDHDGDYKDHDIDYKDDDDKGAAHHHHHH |  |  |  |  |  |  |  |  |  | 0.14 | 1.6 | 146000
T017000038 (bispecific antibody, TCR x CD20 bispecific Nanobody construct (cluster C); entry includes the FLAG3-HIS6 tag; also called T0170061G01-35GS-20CD019C07-FLAG3-HIS6) EVQLVESGGGLVQPGGSLRLSCAASGEIGRINFYRWYRQAPGNQREVVATITIADKTDYADSAKGRFTISRDESRNMVYLQMSSLKPEDTAVYFCHAGSRLYPYDYWGQGTLVTVSSGGGGSGGGGSGGGGSGGGGSGGGGSGGGGSGGGGSEVQLVESGGGLVQPGGSLRLSCTFSGGTFSSYTMGWFRQAPGKEREFVAEVRWGGVTTYSNSLKDRFSISEDSVKNAVYLQMNSLKPEDTAVYYCAAVRQMYMTVVPDYWGQGTLVTVSSGAADYKDHDGDYKDHDIDYKDDDDKGAAHHHHHH | 2.7 | > 100 | 21 | 4.1 |  |  |  |  |  |  |  | 

From patent US20190112392A1 (Ablynx, published 2019)
